According to patent US20150274808A1 (Biogen, published 2015):

Target: T1, human antigen that binds to mAb1 (human LINGO-1) (human, UniProt Q96FE5 42-538, limits assumed)
T1 sequence (looked up): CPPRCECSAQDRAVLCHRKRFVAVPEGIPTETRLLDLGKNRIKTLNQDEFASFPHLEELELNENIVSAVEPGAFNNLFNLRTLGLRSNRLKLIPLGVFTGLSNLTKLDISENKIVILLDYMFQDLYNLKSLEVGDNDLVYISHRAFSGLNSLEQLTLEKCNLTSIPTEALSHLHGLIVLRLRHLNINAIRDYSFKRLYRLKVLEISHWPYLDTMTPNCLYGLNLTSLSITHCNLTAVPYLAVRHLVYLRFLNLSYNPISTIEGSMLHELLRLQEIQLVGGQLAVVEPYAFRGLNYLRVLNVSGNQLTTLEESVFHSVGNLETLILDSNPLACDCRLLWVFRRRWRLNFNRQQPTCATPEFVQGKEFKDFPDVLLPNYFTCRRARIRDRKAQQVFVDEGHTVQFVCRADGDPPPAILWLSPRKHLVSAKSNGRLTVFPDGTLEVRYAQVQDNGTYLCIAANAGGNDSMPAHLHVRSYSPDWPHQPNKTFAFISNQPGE
Assay: direct binding ELISA on plate-coated human antigen; preparation with 39% trisulfide at LC5-HC5
Description: Costar 96-well easy wash plates were coated overnight with 5 μg/mL human antigen that binds to mAb1 (50 μL/well), in 50 mM sodium carbonate (pH 9.5) at 4° C. Plates were washed 3 times with 350 μL of PBS using a plate washer and blocked with 1% BSA, 0.1% ovalbumin, and 0.1% non-fat dry milk in Hank's balanced salt buffer containing 25 mM HEPES (pH 7.0) for 1 hour at room temperature. Plates were then washed again, and incubated for 1 h with a 3-fold dilution series set up for each test compound (50 μL/well, 8 dilutions) starting at 10 μg/mL and all in 0.1% BSA, 0.1% ovalbumin, and 0.1% non-fat dry milk in Hank's balanced salt buffer containing 25 mM HEPES (pH 7.0), and again washed. Bound mAb1 was detected using AP-anti-human Fab. […] Plates were read at 405 nm on a Molecular Devices plate reader. EC₅₀ values for binding were calculated from the titration curve using prism software. The function of mAb2 was assessed as for mAb1 except that 96 well microplates were coated overnight at 4° C. with 1 μg/mL (in 15 mM Na₂CO₃, 35 mM NaHCO₃, pH 9.6) of a human antigen that binds to mAb2. […] Binding was determined using a horseradish peroxidase-conjugated goat anti-human polyclonal antibody (Jackson ImmunoResearch, West Grove, Pa.) followed by measurement of horse radish peroxidase activity using the substrate tetramethylbenzidine.

B1: anti-LINGO-1 antibody Li81 (antibody, V domains shown)
VH: EVQLLESGGGLVQPGGSLRLSCAASGFTFSAYEMKWVRQAPGKGLEWVSVIGPSGGFTFYADSVKGRFTISRDNSKNTLYLQMNSLRAEDTAVYYCATEGDNDAFDIWGQGTTVTVSS
VL: DIQMTQSPATLSLSPGERATLSCRASQSVSSYLAWYQQKPGQAPRLLIYDASNRATGIPARFSGSGSGTDFTLTISSLEPEDFAVYYCQQRSNWPMYTFGQGTKLEIK
notes: Tested as an aglycosyl human IgG1 made in CHO cells; They differ only in the share of trisulfide at the light-heavy (LC5-HC5) interchain bond; also called mAb1; Mab1
  EC50: 0.02 nM
